From patent US20140087995A1 (published 2014)
Numbered stars: 1 amine (or outer) side, 2 acyl side, 3 side chain; on linkers, the order of the positions; unused ones are H or OH. Bridge positions count the residues as written; N and C are the ends. Side chains are listed from the residue outwards. Ends that are not written are not given here. * marks the point of attachment. C20 diacid = O=C(O)CCCCCCCCCCCCCCCCCCC(=O)*; γGlu = O=C(O)[C@H](CCC(=O)[*:2])N[*:1]; AEEA = NCCOCCOCC(=O)O

T1: rat calcitonin receptor (rat, UniProt P32214 25-516)
T1 construct: whole, on cells; Membranes of transiently transfected BHK tk'ts 13 cells (Assay VIII); also called rCTR
T1 sequence (looked up): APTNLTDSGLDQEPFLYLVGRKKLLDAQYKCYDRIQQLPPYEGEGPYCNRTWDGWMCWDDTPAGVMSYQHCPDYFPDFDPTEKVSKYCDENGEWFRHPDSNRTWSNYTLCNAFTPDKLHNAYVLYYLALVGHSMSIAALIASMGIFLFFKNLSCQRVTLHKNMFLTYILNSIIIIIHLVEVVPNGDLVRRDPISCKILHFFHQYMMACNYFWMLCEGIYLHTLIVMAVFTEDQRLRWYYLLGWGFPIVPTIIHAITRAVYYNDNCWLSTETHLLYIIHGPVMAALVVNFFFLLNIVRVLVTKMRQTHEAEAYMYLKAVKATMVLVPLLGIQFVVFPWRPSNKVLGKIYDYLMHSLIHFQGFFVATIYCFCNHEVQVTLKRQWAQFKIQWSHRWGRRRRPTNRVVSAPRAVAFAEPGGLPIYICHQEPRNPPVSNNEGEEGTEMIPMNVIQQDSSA

T2: human calcitonin receptor (human, UniProt P30988 25-474)
T2 construct: whole, on cells; Membranes of a stably transfected BHK cell line (Assay VII); also called hCTR; hCT
T2 sequence (looked up): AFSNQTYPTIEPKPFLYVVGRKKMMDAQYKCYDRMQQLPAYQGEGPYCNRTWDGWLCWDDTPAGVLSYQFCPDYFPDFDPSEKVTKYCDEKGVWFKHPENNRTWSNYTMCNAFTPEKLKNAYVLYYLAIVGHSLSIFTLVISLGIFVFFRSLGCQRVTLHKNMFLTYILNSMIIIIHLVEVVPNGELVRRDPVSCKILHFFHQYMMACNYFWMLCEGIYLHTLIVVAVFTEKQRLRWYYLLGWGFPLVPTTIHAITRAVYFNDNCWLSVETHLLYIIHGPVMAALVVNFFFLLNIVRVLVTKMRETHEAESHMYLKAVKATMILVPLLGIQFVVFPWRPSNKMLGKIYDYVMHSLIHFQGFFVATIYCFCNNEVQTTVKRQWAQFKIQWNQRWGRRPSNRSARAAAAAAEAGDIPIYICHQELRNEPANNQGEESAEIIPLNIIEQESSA

T3: rat amylin receptor (rat calcitonin receptor + rat RAMP 3) (rat, UniProt P32214 25-516; Q9JJ73 23-147)
T3 construct: whole, on cells; Membranes of transiently transfected BHK tk'ts 13 cells (Assay VI); also called rAmylin-R; rat amylin 3(a) receptor
T3 sequence (looked up) 1: T1 sequence (looked up)
T3 sequence (looked up) 2: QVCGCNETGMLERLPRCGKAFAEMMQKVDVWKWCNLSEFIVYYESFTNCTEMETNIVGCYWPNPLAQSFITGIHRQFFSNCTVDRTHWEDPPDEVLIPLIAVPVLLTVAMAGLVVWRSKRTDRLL

B1: N^ε1-[2-[2-[2-[[2-[2-[2-[[(4S)-4-carboxy-4-(19-carboxynonadecanoylamino)butanoyl]amino]ethoxy]ethoxy]acetyl]amino]ethoxy]ethoxy]acetyl]-[Arg17,Pro21,Pro27,His34 … (peptide)
peptide: K([AEEA-AEEA-γGlu-C20 diacid])CNTATCATQRLANFLRHSSPNFGAIPSSTNVGHNTY-NH2
modifications: disulfide 2-7; N-terminus assumed
SMILES: CC[C@H](C)[C@H](NC(=O)[C@H](C)NC(=O)CNC(=O)[C@H](Cc1ccccc1)NC(=O)[C@H](CC(N)=O)NC(=O)[C@@H]1CCCN1C(=O)[C@H](CO)NC(=O)[C@H](CO)NC(=O)[C@H](Cc1c[nH]cn1)NC(=O)[C@H](CCCNC(=N)N)NC(=O)[C@H](CC(C)C)NC(=O)[C@H](Cc1ccccc1)NC(=O)[C@H](CC(N)=O)NC(=O)[C@H](C)NC(=O)[C@H](CC(C)C)NC(=O)[C@H](CCCNC(=N)N)NC(=O)[C@H](CCC(N)=O)NC(=O)[C@@H](NC(=O)[C@H](C)NC(=O)[C@@H]1CSSC[C@H](NC(=O)[C@@H](N)CCCCNC(=O)COCCOCCNC(=O)COCCOCCNC(=O)CC[C@H](NC(=O)CCCCCCCCCCCCCCCCCCC(=O)O)C(=O)O)C(=O)N[C@@H](CC(N)=O)C(=O)N[C@@H]([C@@H](C)O)C(=O)N[C@@H](C)C(=O)N[C@@H]([C@@H](C)O)C(=O)N1)[C@@H](C)O)C(=O)N1CCC[C@H]1C(=O)N[C@@H](CO)C(=O)N[C@@H](CO)C(=O)N[C@H](C(=O)N[C@@H](CC(N)=O)C(=O)N[C@H](C(=O)NCC(=O)N[C@@H](Cc1c[nH]cn1)C(=O)N[C@@H](CC(N)=O)C(=O)N[C@H](C(=O)N[C@@H](Cc1ccc(O)cc1)C(N)=O)[C@@H](C)O)C(C)C)[C@@H](C)O
notes: also called compound 97
B2: N^ε1-[2-[2-[2-[[(4S)-4-carboxy-4-(19-carboxynonadecanoylamino)butanoyl]amino]ethoxy]ethoxy]acetyl]-[His14,Arg17,Pro21,Pro27,Arg34]-h-amylin (peptide)
peptide: K([AEEA-γGlu-C20 diacid])CNTATCATQRLAHFLRHSSPNFGAIPSSTNVGRNTY-NH2
modifications: disulfide 2-7; N-terminus assumed
SMILES: CC[C@H](C)[C@H](NC(=O)[C@H](C)NC(=O)CNC(=O)[C@H](Cc1ccccc1)NC(=O)[C@H](CC(N)=O)NC(=O)[C@@H]1CCCN1C(=O)[C@H](CO)NC(=O)[C@H](CO)NC(=O)[C@H](Cc1c[nH]cn1)NC(=O)[C@H](CCCNC(=N)N)NC(=O)[C@H](CC(C)C)NC(=O)[C@H](Cc1ccccc1)NC(=O)[C@H](Cc1c[nH]cn1)NC(=O)[C@H](C)NC(=O)[C@H](CC(C)C)NC(=O)[C@H](CCCNC(=N)N)NC(=O)[C@H](CCC(N)=O)NC(=O)[C@@H](NC(=O)[C@H](C)NC(=O)[C@@H]1CSSC[C@H](NC(=O)[C@@H](N)CCCCNC(=O)COCCOCCNC(=O)CC[C@H](NC(=O)CCCCCCCCCCCCCCCCCCC(=O)O)C(=O)O)C(=O)N[C@@H](CC(N)=O)C(=O)N[C@@H]([C@@H](C)O)C(=O)N[C@@H](C)C(=O)N[C@@H]([C@@H](C)O)C(=O)N1)[C@@H](C)O)C(=O)N1CCC[C@H]1C(=O)N[C@@H](CO)C(=O)N[C@@H](CO)C(=O)N[C@H](C(=O)N[C@@H](CC(N)=O)C(=O)N[C@H](C(=O)NCC(=O)N[C@@H](CCCNC(=N)N)C(=O)N[C@@H](CC(N)=O)C(=O)N[C@H](C(=O)N[C@@H](Cc1ccc(O)cc1)C(N)=O)[C@@H](C)O)C(C)C)[C@@H](C)O
notes: also called compound 84
B3: N^ε1-[2-[2-[2-[[2-[2-[2-[[(4S)-4-carboxy-4-(19-carboxynonadecanoylamino)butanoyl]amino]ethoxy]ethoxy]acetyl]amino]ethoxy]ethoxy]acetyl]-[Arg17,Pro21,Pro27,Pro34 … (peptide)
peptide: K([AEEA-AEEA-γGlu-C20 diacid])CNTATCATQRLANFLRHSSPNFGAIPSSTNVGPNTY-NH2
modifications: disulfide 2-7; N-terminus assumed
SMILES: CC[C@H](C)[C@H](NC(=O)[C@H](C)NC(=O)CNC(=O)[C@H](Cc1ccccc1)NC(=O)[C@H](CC(N)=O)NC(=O)[C@@H]1CCCN1C(=O)[C@H](CO)NC(=O)[C@H](CO)NC(=O)[C@H](Cc1c[nH]cn1)NC(=O)[C@H](CCCNC(=N)N)NC(=O)[C@H](CC(C)C)NC(=O)[C@H](Cc1ccccc1)NC(=O)[C@H](CC(N)=O)NC(=O)[C@H](C)NC(=O)[C@H](CC(C)C)NC(=O)[C@H](CCCNC(=N)N)NC(=O)[C@H](CCC(N)=O)NC(=O)[C@@H](NC(=O)[C@H](C)NC(=O)[C@@H]1CSSC[C@H](NC(=O)[C@@H](N)CCCCNC(=O)COCCOCCNC(=O)COCCOCCNC(=O)CC[C@H](NC(=O)CCCCCCCCCCCCCCCCCCC(=O)O)C(=O)O)C(=O)N[C@@H](CC(N)=O)C(=O)N[C@@H]([C@@H](C)O)C(=O)N[C@@H](C)C(=O)N[C@@H]([C@@H](C)O)C(=O)N1)[C@@H](C)O)C(=O)N1CCC[C@H]1C(=O)N[C@@H](CO)C(=O)N[C@@H](CO)C(=O)N[C@H](C(=O)N[C@@H](CC(N)=O)C(=O)N[C@H](C(=O)NCC(=O)N1CCC[C@H]1C(=O)N[C@@H](CC(N)=O)C(=O)N[C@H](C(=O)N[C@@H](Cc1ccc(O)cc1)C(N)=O)[C@@H](C)O)C(C)C)[C@@H](C)O
notes: also called compound 98
B4: N^ε1-[2-[2-[2-[[2-[2-[2-[[(4S)-4-carboxy-4-(19-carboxynonadecanoylamino)butanoyl]amino]ethoxy]ethoxy]acetyl]amino]ethoxy]ethoxy]acetyl]-[Arg17,Pro21,Pro27,Pro31 … (peptide)
peptide: K([AEEA-AEEA-γGlu-C20 diacid])CNTATCATQRLANFLRHSSPNFGAIPSSTPVGSNTY-NH2
modifications: disulfide 2-7; N-terminus assumed
SMILES: CC[C@H](C)[C@H](NC(=O)[C@H](C)NC(=O)CNC(=O)[C@H](Cc1ccccc1)NC(=O)[C@H](CC(N)=O)NC(=O)[C@@H]1CCCN1C(=O)[C@H](CO)NC(=O)[C@H](CO)NC(=O)[C@H](Cc1c[nH]cn1)NC(=O)[C@H](CCCNC(=N)N)NC(=O)[C@H](CC(C)C)NC(=O)[C@H](Cc1ccccc1)NC(=O)[C@H](CC(N)=O)NC(=O)[C@H](C)NC(=O)[C@H](CC(C)C)NC(=O)[C@H](CCCNC(=N)N)NC(=O)[C@H](CCC(N)=O)NC(=O)[C@@H](NC(=O)[C@H](C)NC(=O)[C@@H]1CSSC[C@H](NC(=O)[C@@H](N)CCCCNC(=O)COCCOCCNC(=O)COCCOCCNC(=O)CC[C@H](NC(=O)CCCCCCCCCCCCCCCCCCC(=O)O)C(=O)O)C(=O)N[C@@H](CC(N)=O)C(=O)N[C@@H]([C@@H](C)O)C(=O)N[C@@H](C)C(=O)N[C@@H]([C@@H](C)O)C(=O)N1)[C@@H](C)O)C(=O)N1CCC[C@H]1C(=O)N[C@@H](CO)C(=O)N[C@@H](CO)C(=O)N[C@H](C(=O)N1CCC[C@H]1C(=O)N[C@H](C(=O)NCC(=O)N[C@@H](CO)C(=O)N[C@@H](CC(N)=O)C(=O)N[C@H](C(=O)N[C@@H](Cc1ccc(O)cc1)C(N)=O)[C@@H](C)O)C(C)C)[C@@H](C)O
notes: also called compound 96

The binders below were run against T1, rat calcitonin receptor (assay: ratio IC50 rat calcitonin receptor / IC50 rat amylin receptor (reference)).
For B1, the “Ratio rCT/rAmylin binding” value was 71.1.
B2 was tested, and the “Ratio rCT/rAmylin binding” value was 94.3.
With B3 the “Ratio rCT/rAmylin binding” value was 176.
B4 was tested, and the “Ratio rCT/rAmylin binding” value was 118.

Each binder was assayed against T2, human calcitonin receptor (assay: ratio IC50 human calcitonin receptor / IC50 human amylin receptor (reference)).
Procedure: The resulting pellet was resuspended, homogenized and centrifuged (20.000 rpm, 15 min) in a buffer containing 20 mM Na-HEPES and 0.1 mM EDTA (pH 7.4, buffer 2). The resulting pellet was resuspended in buffer 2 and protein concentration was measured (BCA protein Assay, Pierce). The homogenate was kept cold during the whole procedure. The membranes were kept at −80° C. until use. The assay was performed in a 384 well Optiplate (PerkinElmer) in a total volume of 40 ul. Membranes were mixed with SPA beads. Final concentration of membranes 35 ng/μL final and SPA beads was 0.05 mg/well. Test-compounds were dissolved in DMSO and further diluted in assay buffer (50 mM Hepes, pH 7.4, 1 mM CaCl2, 5 mM MgCl₂, 0.1% OA and 0.02% Tween20). […] The final mixture was incubated with shaking at 400 rpm for 120 min at 25° C. prior to centrifugation (1500 rpm, 10 min). Samples were analyzed on TopCounter™ (Packard). The IC₅₀ was calculated using (one site binding competition analysis) GraphPad Prism5 as a measure of receptor affinity.
Membranes were prepared in the following way; the cells were rinsed with PBS and incubated with Versene for approximately 5 min before harvesting. The cells were flushed with PBS and the cell-suspension was centrifuged for 5 min at 1000 rpm. Cells were homogenized (Ultrathurrax) in a buffer containing 20 mM Na-HEPES and 10 mM EDTA (pH 7.4) and centrifuged at 20.000 rpm for 15 min. The resulting pellet was resuspended, homogenized and centrifuged (20.000 rpm, 15 min) in a buffer containing 20 mM Na-HEPES and 0.1 mM EDTA (pH 7.4, buffer 2). The resulting pellet was resuspended in buffer 2 and protein concentration was measured (BCA protein Assay, Pierce). The homogenate was kept cold during the whole procedure. The membranes were kept at −80° C. until use. Assay was performed in a 384 well Optiplate (PerkinElmer) in a total volume of 40 ul. Membranes were mixed with SPA beads.
B1 was tested, and the “Ratio hCT/hAmylin binding” value was 104.
B2 was tested, and the “Ratio hCT/hAmylin binding” value was 120.
With B3 the “Ratio hCT/hAmylin binding” value was 74.1.
In the case of B4, the “Ratio hCT/hAmylin binding” value is reported as 79.6.

These binders were tested against T1, rat calcitonin receptor (assay: SPA competition with 125I-calcitonin, membranes of BHK cells with rat calcitonin receptor (Assay VIII)).
B1 showed an IC50 of 159 nM.
Work on B2 yielded an IC50 of 477 nM.
B3 was tested, and the IC50 was 24.1 nM.
With B4 the IC50 was 62.2 nM.

What follows are binders tested against T3, rat amylin receptor (rat calcitonin …) (assay: SPA competition with 125I-rat amylin, membranes of BHK cells with rat calcitonin receptor + rat RAMP3 (Assay VI)).
Work on B1 yielded an IC50 of 2.24 nM.
Binder B2 has an IC50 of 5.05 nM.
B3 showed an IC50 of 0.137 nM.
For B4, the IC50 was 0.529 nM.
